From doi:10.1101/2024.04.11.589026 (bioRxiv, 2024) come the findings set out here.

T1: full-length mouse BICD2 (mouse), Q921C5
T1 chain: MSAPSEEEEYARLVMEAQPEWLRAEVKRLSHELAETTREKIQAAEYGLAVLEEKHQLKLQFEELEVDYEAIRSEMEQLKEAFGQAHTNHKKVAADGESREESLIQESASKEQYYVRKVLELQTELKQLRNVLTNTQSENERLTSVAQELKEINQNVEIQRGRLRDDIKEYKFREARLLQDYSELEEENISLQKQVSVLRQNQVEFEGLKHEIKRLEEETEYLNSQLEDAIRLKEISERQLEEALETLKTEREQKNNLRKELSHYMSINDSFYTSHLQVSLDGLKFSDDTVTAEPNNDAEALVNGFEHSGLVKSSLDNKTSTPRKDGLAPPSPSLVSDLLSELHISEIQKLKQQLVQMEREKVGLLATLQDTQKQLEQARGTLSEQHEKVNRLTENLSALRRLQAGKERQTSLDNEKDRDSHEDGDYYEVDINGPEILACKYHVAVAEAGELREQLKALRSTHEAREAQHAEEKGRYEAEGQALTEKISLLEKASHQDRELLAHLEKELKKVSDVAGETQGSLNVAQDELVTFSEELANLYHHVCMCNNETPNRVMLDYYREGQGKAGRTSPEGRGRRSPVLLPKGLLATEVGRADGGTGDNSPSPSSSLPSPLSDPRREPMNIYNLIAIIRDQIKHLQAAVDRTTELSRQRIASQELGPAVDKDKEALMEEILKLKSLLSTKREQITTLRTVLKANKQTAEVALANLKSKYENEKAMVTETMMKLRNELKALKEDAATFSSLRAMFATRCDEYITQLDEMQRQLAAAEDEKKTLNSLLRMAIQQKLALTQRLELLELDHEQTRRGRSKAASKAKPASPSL

B1: CC3 of BICD1 (mouse BICD1 residues 713-802) (domain or fragment)
chain: YENEKAMVTETMTKLRNELKALKEDAATFSSLRAMFATRCDEYVTQLDEMQRQLAAAEDEKKTLNTLLRMAIQQKLALTQRLEDLEFDHE
B2: Strep-BICD2^711-800 L742A/L786A (domain or fragment)
chain: B1 chain with T13M, L32A, V44I, T66S, L76A, D84L, F87L
B3: Strep-BICD2^711-800 L742A (domain or fragment)
chain: B1 chain with T13M, L32A, V44I, T66S, D84L, F87L
B4: BICD2^711-800 (CC3 domain of BICD2) (domain or fragment)
chain: B1 chain with T13M, V44I, T66S, D84L, F87L
B5: Strep-BICD2^711-800 L786A (domain or fragment)
chain: B1 chain with T13M, V44I, T66S, L76A, D84L, F87L
B6: ScaC[50-159] (domain or fragment)
chain: LRKDIAEVSKLLCMLEKSTASSKNLTMRLQQSDTRENEQSNHIRLLITEIESINKENDCLRQKNNQLKIKLHQLKVKLEQALARNTDLQQILPKSQAEMDNLRKQNEQLK
B7: full-length mouse BICD2, Q921C5 1-820 (natural protein)
chain: T1 chain
B8: ScaC-AF647 (AF647-labelled ScaC-SNAP) (domain or fragment)
chain: VSNMNLDISNMGEAREGLRKDIAEVSKLLCMLEKSTASSKNLTMRLQQSDTRENEQSNHIRLLITEIESINKENDCLRQKNNQLKIKLHQLKVKLEQALARNTDLQQILPKSQAEMDNLRKQNEQLKIQLQQLQVKLQDLMSLQNKCSNLALINSVKLNYIRDIKYIALANIVIVKALASTFTEKLSKSNR
modifications: Alexa Fluor 647 on the SNAP tag
B9: ScaC passenger domain (residues 33-223), purified (domain or fragment)
chain: B8 chain
B10: BICD2N (BICD2 residues 1-400) (domain or fragment)
chain: MSAPSEEEEYARLVMEAQPEWLRAEVKRLSHELAETTREKIQAAEYGLAVLEEKHQLKLQFEELEVDYEAIRSEMEQLKEAFGQAHTNHKKVAADGESREESLIQESASKEQYYVRKVLELQTELKQLRNVLTNTQSENERLTSVAQELKEINQNVEIQRGRLRDDIKEYKFREARLLQDYSELEEENISLQKQVSVLRQNQVEFEGLKHEIKRLEEETEYLNSQLEDAIRLKEISERQLEEALETLKTEREQKNNLRKELSHYMSINDSFYTSHLQVSLDGLKFSDDTVTAEPNNDAEALVNGFEHSGLVKSSLDNKTSTPRKDGLAPPSPSLVSDLLSELHISEIQKLKQQLVQMEREKVGLLATLQDTQKQLEQARGTLSEQHEKVNRLTENLSALR

Data set [1] has as its target B9. The data set can be described thus: SEC.
Data set [2] deals with B9. The data set can be described thus: pull-down.
The target in data set [3] is Rab6^Q72L (GTP-locked Rab6 mutant) (human, UniProt P20340 1-208, Q72L). Nature of the data set: pull-down.
Chain of Rab6^Q72L (GTP-locked Rab6 mutant) (P20340 whole entry Q72L): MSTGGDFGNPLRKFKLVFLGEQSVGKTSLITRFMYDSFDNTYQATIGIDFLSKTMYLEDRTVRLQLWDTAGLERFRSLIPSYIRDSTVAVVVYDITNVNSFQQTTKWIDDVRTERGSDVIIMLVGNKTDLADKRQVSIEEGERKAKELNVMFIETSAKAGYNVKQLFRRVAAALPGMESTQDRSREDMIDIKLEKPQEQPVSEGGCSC
Data set [4] concerns the target T2, full-length mouse BICD2 (mouse, UniProt Q921C5 1-820). The data set can be described thus: SEC. (SEC sorts molecules by how far they enter the pores of the column.)
Data set [5] addresses T1, full-length mouse BICD2 (mouse), Q921C5. The data set can be described thus: SEC-MALS. The settings on record: remark: other sources report otherwise.
The target in data set [6] is BICD2-AF488 (AF488-labelled BICD2-SNAP) (mouse, UniProt Q921C5 1-820, Alexa Fluor 488 on the SNAP tag). The data set can be described thus: single-molecule TIRF co-migration on microtubules.
Data set [7] deals with T2, full-length mouse BICD2. Nature of the data set: SEC-MALS.
The data set “SEC-MALS” concerns the molecule itself. Nature of the data set: SEC-MALS.
For data set [8], the target named is BICD2C (BICD2 residues 342-800) (mouse, UniProt Q921C5 342-800). The data set can be described thus: SEC.

Residue numbers refer to the chain shown, from its start. Numbers in names are those of the source.

On to B1, for which, in data set [1], the binding result was “binds”.

Regarding B2, the binding result in [2] is “binds”.

Consider B3, for which the binding result in data set [2] is listed as “binds”.

B4: the binding result in data set [2] and in data set [3] was “binds” throughout.

B5: in data set [2], the binding result is “binds”.

For B6, the binding result in the data set with full-length mouse BICD2 [4] is reported as “binds”.

On to B7, for which the stoichiometry N in data set [5] is 2.

Take B8: the binding result in data set [6] was “binds”.

Regarding B9, the “stoichiometry N” value is 1 ScaC chains per BICD2 chain (2:2) with full-length mouse BICD2 [7] and 2 in “SEC-MALS”.

B10: in data set [8], the binding result is “binds”.

As a reminder, the stoichiometry N is a count of units in the complex or per binding partner.
